The results in this text go back to US20030170748A1 (IAMS, published 2003).

Read-outs that look alike come from different tables or passages of the source. Square brackets hold non-standard residues; d marks the D form. Ends that are not written are not given here. βAla = NCCC(=O)O

Assay [1] concerns the target T1, canine PepT1 (cPepT1) (canine, UniProt Q8WMX5 1-708).
T1 sequence: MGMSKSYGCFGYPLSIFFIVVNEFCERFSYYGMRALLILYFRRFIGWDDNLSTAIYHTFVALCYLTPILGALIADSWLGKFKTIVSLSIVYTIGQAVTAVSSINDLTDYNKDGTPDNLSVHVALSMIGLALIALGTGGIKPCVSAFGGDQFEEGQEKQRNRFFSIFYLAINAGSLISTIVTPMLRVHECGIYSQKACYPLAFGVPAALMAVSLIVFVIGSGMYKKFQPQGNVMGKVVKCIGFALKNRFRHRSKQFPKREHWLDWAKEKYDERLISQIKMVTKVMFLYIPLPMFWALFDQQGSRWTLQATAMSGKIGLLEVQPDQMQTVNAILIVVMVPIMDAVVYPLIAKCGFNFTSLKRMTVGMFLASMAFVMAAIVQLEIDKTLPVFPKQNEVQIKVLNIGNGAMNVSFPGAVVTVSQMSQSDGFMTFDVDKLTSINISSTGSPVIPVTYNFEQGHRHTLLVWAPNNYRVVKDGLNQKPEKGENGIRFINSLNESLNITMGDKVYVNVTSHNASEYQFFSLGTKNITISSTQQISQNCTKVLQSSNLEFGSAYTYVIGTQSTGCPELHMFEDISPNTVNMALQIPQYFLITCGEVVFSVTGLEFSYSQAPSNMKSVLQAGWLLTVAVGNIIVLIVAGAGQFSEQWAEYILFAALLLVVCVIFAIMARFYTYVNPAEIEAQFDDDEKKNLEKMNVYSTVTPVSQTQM
Nature of the assay: cell-based or functional assay.

Assay [2] has as its target T1, canine PepT1 (cPepT1). Nature of the assay: inhibition of H+-dependent 100 µM [3H]GlySar uptake by MDCK cells; Ki by graphical analysis of IC50 experiments; competitor GlySar.
In assay [3] the target is T1, canine PepT1 (cPepT1). Nature of the assay: cell-based or functional assay. This is another data set of the same source.
Assay [4] deals with T1, canine PepT1 (cPepT1). In words: cell-based or functional assay. This is another data set of the same source.

As a reminder, the Ki is a measure of affinity in units of concentration, obtained from inhibition or displacement.

Turning to glycylsarcosine (GlySar) (peptide), in assay [1], the Km of H+-dependent GlySar uptake by MDCK cells (FIG. 12 legend) stood at 1000 µM; the apparent Km of H+-dependent GlySar uptake by MDCK cells grown in LHM came to 1100 µM; the apparent Km of total GlySar uptake by confluent MDCK cells, pH 6.0 worked out at 4 mM; the self-inhibition of 100 µM GlySar uptake by 1 mM GlySar, MDCK cells worked out at 64%.
The molecule LeuMet (peptide) registered a % inhibition of H+-dependent GlySar uptake (100 µM substrate, 100 µM GlySar, MDCK cells; Leu-containing peptides experiment) in assay [1] of 80%.
Take MetMet (peptide): in assay [1], the % inhibition of H+-dependent GlySar uptake (1 mM substrate, 100 µM GlySar, MDCK cells) is 100%.
As to MetPhe (peptide), in assay [1], the % inhibition of H+-dependent GlySar uptake (1 mM substrate, 100 µM GlySar, MDCK cells) stood at 100%.
Turning to TrpTrp (peptide), in assay [1], the % inhibition of H+-dependent GlySar uptake (100 µM substrate, 100 µM GlySar, MDCK cells; Trp-containing peptides experiment) worked out at 62% and the % inhibition of H+-dependent GlySar uptake (1 mM substrate, 100 µM GlySar, MDCK cells) was 119%. This molecule displayed a Ki in assay [2] of 750 nM.
Regarding TrpGlyGly (peptide), in assay [1], the % inhibition of H+-dependent GlySar uptake (1 mM substrate, 100 µM GlySar, MDCK cells) amounted to 33% and the inhibition of 100 µM GlySar uptake by 1 mM peptide, MDCK cells is 73%.
Take TrpLeu (peptide): in assay [1], the % inhibition of H+-dependent GlySar uptake (100 µM substrate, 100 µM GlySar, MDCK cells; Leu-containing peptides experiment) is 94%; the % inhibition of H+-dependent GlySar uptake (100 µM substrate, 100 µM GlySar, MDCK cells; Trp-containing peptides experiment) was 92%; the % inhibition of H+-dependent GlySar uptake (1 mM substrate, 100 µM GlySar, MDCK cells) was determined as 116%; the % inhibition of pH 6.0 uptake, 10 mM competitor, collagen was found to be 8%. In assay [1], the % inhibition of pH 6.0 uptake, 10 mM competitor, poly-L-lysine amounted to 8.1%; the Glysylsarcosine uptake, pH 6.0, with 10 mM competitor, MDCK cells on collagen (pmol 30 min^-1 mg^-1 protein) amounted to 5.21; the Glysylsarcosine uptake, pH 6.0, with 10 mM competitor, MDCK cells on poly-L-lysine (pmol 30 min^-1 mg^-1 protein) was 3.44; the inhibition of H+-dependent 100 µM GlySar uptake by 1 mM peptide, MDCK cells was 117%. In assay [1], this molecule yielded an inhibition of H+-dependent GlySar uptake by 10 mM peptide, MDCK cells on collagen of 92% and an inhibition of H+-dependent GlySar uptake by 10 mM peptide, MDCK cells on poly-L-lysine of 92%. The molecule also had a Ki in assay [2] of 200 nM.
As for LW [LeuTrp], in assay [3], the “inhibition of H+-dependent 100 µM GlySar uptake by 1 mM peptide, MDCK cells” value was found to be 114%. For the same molecule, in assay [4], the “% inhibition of H+-dependent GlySar uptake (1 mM substrate, 100 µM GlySar, MDCK cells)” value was found to be 113%.
In the case of [βAla]-His [Carnosine (β-AlaHis)], the “% inhibition of H+-dependent GlySar uptake (1 mM substrate, 100 µM GlySar, MDCK cells)” value in assay [4] was 50%.
Take GGGGG [[Gly]5]: the “inhibition of H+-dependent 100 µM GlySar uptake by 1 mM peptide, MDCK cells” value in assay [3] came to 7.3%. For the same molecule, the “% inhibition of H+-dependent GlySar uptake (1 mM substrate, 100 µM GlySar, MDCK cells)” value in assay [4] worked out at 9%.
Regarding MGMM [MetGlyMetMet (SEQ ID NO:10)], the “% inhibition of H+-dependent GlySar uptake (1 mM substrate, 100 µM GlySar, MDCK cells)” value in assay [4] worked out at 50%.
On to GGGG [[Gly]4], for which, in assay [3], the “inhibition of H+-dependent 100 µM GlySar uptake by 1 mM peptide, MDCK cells” value amounted to 23%. Besides, the “% inhibition of H+-dependent GlySar uptake (1 mM substrate, 100 µM GlySar, MDCK cells)” value in assay [4] was 19%.
